Assay results taken from patent US20140335107A1 (published 2014).

T1: extracellular domain of human CD79b (huCD79becd) (human, UniProt P40259 29-159)
T1 construct: expressed in CHO cells
T1 sequence: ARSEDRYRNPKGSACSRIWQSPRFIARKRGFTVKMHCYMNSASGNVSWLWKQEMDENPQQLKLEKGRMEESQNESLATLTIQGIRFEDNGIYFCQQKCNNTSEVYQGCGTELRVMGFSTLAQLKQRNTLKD


Molecular target: T1, extracellular domain of human CD79b …
Assay: phage selection, Fab on phage
Protocol: For phage selection, the extracellular domain of CD79b (huCD79becd) (2 μg/ml) was immobilized in PBS on MaxiSorp microtiter plates (Nunc) overnight at 4° C. Plates were blocked for at least 1 h using Casein Blocker (Pierce). Phage were harvested from the culture supernatant and suspended in PBS containing 0.5% BSA and 0.05% Tween 20 (PBSBT). Following addition of the phage library and phage selection for 2 h, microtiter wells were washed extensively with PBS containing 0.05% Tween 20 (PBST) to remove unbound phage and bound phage were eluted by incubating the wells with 100 mM HCl for 30 min. Selection stringency may be increased during successive rounds of selection by increasing the number of washes with PBST or by incubating with soluble huCD79becd for increasing time periods prior to elution.

Binder	binding result
huMA79b graft variant with HVR-L1 of SEQ ID NO: 17 (Fab, name in Kabat numbering, V domains shown, Fab on phage; also called SPL-2 mutation) VH: EVQLVESGGGLVQPGGSLRLSCAASGYTFSSYWIEWVRQAPGKGLEWVGEILPGGGDTNYNEIFKGRFTISADTSKNTAYLQMNSLRAEDTAVYYCTRRVPVYFDYWGQGTLVTVSS VL: DIQMTQSPSSLSASVGDRVTITCKASKSVDYDGDSFLNWYQQKPGKAPKLLIYAASNLESGVPSRFSGSGSGTDFTLTISSLQPEDFATYYCQQSNEDPLTFGQGTKVEIKR	binds
huMA79b graft variant with HVR-L2 of SEQ ID NO: 25 (Fab, name in Kabat numbering, V domains shown, Fab on phage) VH: EVQLVESGGGLVQPGGSLRLSCAASGYTFSSYWIEWVRQAPGKGLEWVGEILPGGGDTNYNEIFKGRFTISADTSKNTAYLQMNSLRAEDTAVYYCTRRVPVYFDYWGQGTLVTVSS VL: DIQMTQSPSSLSASVGDRVTITCKASQSVDYDGDSFLNWYQQKPGKAPKLLIYAARKLKRGVPSRFSGSGSGTDFTLTISSLQPEDFATYYCQQSNEDPLTFGQGTKVEIKR	binds
huMA79b graft variant with HVR-L2 of SEQ ID NO: 31 (Fab, name in Kabat numbering, V domains shown, Fab on phage; also called L2-38 mutation) VH: EVQLVESGGGLVQPGGSLRLSCAASGYTFSSYWIEWVRQAPGKGLEWVGEILPGGGDTNYNEIFKGRFTISADTSKNTAYLQMNSLRAEDTAVYYCTRRVPVYFDYWGQGTLVTVSS VL: DIQMTQSPSSLSASVGDRVTITCKASQSVDYDGDSFLNWYQQKPGKAPKLLIYAARKLGSGVPSRFSGSGSGTDFTLTISSLQPEDFATYYCQQSNEDPLTFGQGTKVEIKR	binds
huMA79b graft variant with HVR-L2 of SEQ ID NO: 27 (Fab, name in Kabat numbering, V domains shown, Fab on phage) VH: EVQLVESGGGLVQPGGSLRLSCAASGYTFSSYWIEWVRQAPGKGLEWVGEILPGGGDTNYNEIFKGRFTISADTSKNTAYLQMNSLRAEDTAVYYCTRRVPVYFDYWGQGTLVTVSS VL: DIQMTQSPSSLSASVGDRVTITCKASQSVDYDGDSFLNWYQQKPGKAPKLLIYAARKLKSGVPSRFSGSGSGTDFTLTISSLQPEDFATYYCQQSNEDPLTFGQGTKVEIKR	binds
huMA79b graft variant with HVR-L2 of SEQ ID NO: 26 (Fab, name in Kabat numbering, V domains shown, Fab on phage; also called L2-29 mutation) VH: EVQLVESGGGLVQPGGSLRLSCAASGYTFSSYWIEWVRQAPGKGLEWVGEILPGGGDTNYNEIFKGRFTISADTSKNTAYLQMNSLRAEDTAVYYCTRRVPVYFDYWGQGTLVTVSS VL: DIQMTQSPSSLSASVGDRVTITCKASQSVDYDGDSFLNWYQQKPGKAPKLLIYAARYLKRGVPSRFSGSGSGTDFTLTISSLQPEDFATYYCQQSNEDPLTFGQGTKVEIKR	binds
huMA79b graft variant with HVR-L2 of SEQ ID NO: 29 (Fab, name in Kabat numbering, V domains shown, Fab on phage) VH: EVQLVESGGGLVQPGGSLRLSCAASGYTFSSYWIEWVRQAPGKGLEWVGEILPGGGDTNYNEIFKGRFTISADTSKNTAYLQMNSLRAEDTAVYYCTRRVPVYFDYWGQGTLVTVSS VL: DIQMTQSPSSLSASVGDRVTITCKASQSVDYDGDSFLNWYQQKPGKAPKLLIYAAGILARGVPSRFSGSGSGTDFTLTISSLQPEDFATYYCQQSNEDPLTFGQGTKVEIKR	binds
huMA79b graft variant with HVR-L2 of SEQ ID NO: 24 (Fab, name in Kabat numbering, V domains shown, Fab on phage) VH: EVQLVESGGGLVQPGGSLRLSCAASGYTFSSYWIEWVRQAPGKGLEWVGEILPGGGDTNYNEIFKGRFTISADTSKNTAYLQMNSLRAEDTAVYYCTRRVPVYFDYWGQGTLVTVSS VL: DIQMTQSPSSLSASVGDRVTITCKASQSVDYDGDSFLNWYQQKPGKAPKLLIYAARKLGNGVPSRFSGSGSGTDFTLTISSLQPEDFATYYCQQSNEDPLTFGQGTKVEIKR	binds
huMA79b graft variant with HVR-L2 of SEQ ID NO: 33 (Fab, name in Kabat numbering, V domains shown, Fab on phage) VH: EVQLVESGGGLVQPGGSLRLSCAASGYTFSSYWIEWVRQAPGKGLEWVGEILPGGGDTNYNEIFKGRFTISADTSKNTAYLQMNSLRAEDTAVYYCTRRVPVYFDYWGQGTLVTVSS VL: DIQMTQSPSSLSASVGDRVTITCKASQSVDYDGDSFLNWYQQKPGKAPKLLIYASRYLSRGVPSRFSGSGSGTDFTLTISSLQPEDFATYYCQQSNEDPLTFGQGTKVEIKR	binds
huMA79b graft variant with HVR-L2 of SEQ ID NO: 19 (Fab, name in Kabat numbering, V domains shown, Fab on phage) VH: EVQLVESGGGLVQPGGSLRLSCAASGYTFSSYWIEWVRQAPGKGLEWVGEILPGGGDTNYNEIFKGRFTISADTSKNTAYLQMNSLRAEDTAVYYCTRRVPVYFDYWGQGTLVTVSS VL: DIQMTQSPSSLSASVGDRVTITCKASQSVDYDGDSFLNWYQQKPGKAPKLLIYAASNLKSGVPSRFSGSGSGTDFTLTISSLQPEDFATYYCQQSNEDPLTFGQGTKVEIKR	binds
huMA79b graft variant with HVR-L2 of SEQ ID NO: 30 (Fab, name in Kabat numbering, V domains shown, Fab on phage) VH: EVQLVESGGGLVQPGGSLRLSCAASGYTFSSYWIEWVRQAPGKGLEWVGEILPGGGDTNYNEIFKGRFTISADTSKNTAYLQMNSLRAEDTAVYYCTRRVPVYFDYWGQGTLVTVSS VL: DIQMTQSPSSLSASVGDRVTITCKASQSVDYDGDSFLNWYQQKPGKAPKLLIYAARKLRSGVPSRFSGSGSGTDFTLTISSLQPEDFATYYCQQSNEDPLTFGQGTKVEIKR	binds
huMA79b graft variant with HVR-L2 of SEQ ID NO: 28 (Fab, name in Kabat numbering, V domains shown, Fab on phage) VH: EVQLVESGGGLVQPGGSLRLSCAASGYTFSSYWIEWVRQAPGKGLEWVGEILPGGGDTNYNEIFKGRFTISADTSKNTAYLQMNSLRAEDTAVYYCTRRVPVYFDYWGQGTLVTVSS VL: DIQMTQSPSSLSASVGDRVTITCKASQSVDYDGDSFLNWYQQKPGKAPKLLIYAARKLASGVPSRFSGSGSGTDFTLTISSLQPEDFATYYCQQSNEDPLTFGQGTKVEIKR	binds
huMA79b graft variant with HVR-L2 of SEQ ID NO: 23 (Fab, name in Kabat numbering, V domains shown, Fab on phage) VH: EVQLVESGGGLVQPGGSLRLSCAASGYTFSSYWIEWVRQAPGKGLEWVGEILPGGGDTNYNEIFKGRFTISADTSKNTAYLQMNSLRAEDTAVYYCTRRVPVYFDYWGQGTLVTVSS VL: DIQMTQSPSSLSASVGDRVTITCKASQSVDYDGDSFLNWYQQKPGKAPKLLIYAASRLESGVPSRFSGSGSGTDFTLTISSLQPEDFATYYCQQSNEDPLTFGQGTKVEIKR	binds
huMA79b graft variant with HVR-L2 of SEQ ID NO: 32 (Fab, name in Kabat numbering, V domains shown, Fab on phage) VH: EVQLVESGGGLVQPGGSLRLSCAASGYTFSSYWIEWVRQAPGKGLEWVGEILPGGGDTNYNEIFKGRFTISADTSKNTAYLQMNSLRAEDTAVYYCTRRVPVYFDYWGQGTLVTVSS VL: DIQMTQSPSSLSASVGDRVTITCKASQSVDYDGDSFLNWYQQKPGKAPKLLIYAARHLKRGVPSRFSGSGSGTDFTLTISSLQPEDFATYYCQQSNEDPLTFGQGTKVEIKR	binds
huMA79b graft variant with HVR-L2 of SEQ ID NO: 34 (Fab, name in Kabat numbering, V domains shown, Fab on phage) VH: EVQLVESGGGLVQPGGSLRLSCAASGYTFSSYWIEWVRQAPGKGLEWVGEILPGGGDTNYNEIFKGRFTISADTSKNTAYLQMNSLRAEDTAVYYCTRRVPVYFDYWGQGTLVTVSS VL: DIQMTQSPSSLSASVGDRVTITCKASQSVDYDGDSFLNWYQQKPGKAPKLLIYAGSKLLRGVPSRFSGSGSGTDFTLTISSLQPEDFATYYCQQSNEDPLTFGQGTKVEIKR	binds
huMA79b graft variant with HVR-L2 of SEQ ID NO: 18 (Fab, name in Kabat numbering, V domains shown, Fab on phage) VH: EVQLVESGGGLVQPGGSLRLSCAASGYTFSSYWIEWVRQAPGKGLEWVGEILPGGGDTNYNEIFKGRFTISADTSKNTAYLQMNSLRAEDTAVYYCTRRVPVYFDYWGQGTLVTVSS VL: DIQMTQSPSSLSASVGDRVTITCKASQSVDYDGDSFLNWYQQKPGKAPKLLIYAASNRESGVPSRFSGSGSGTDFTLTISSLQPEDFATYYCQQSNEDPLTFGQGTKVEIKR	binds
